Test results reported in US20070207960.

Target: full-length, relipidated human tissue factor (UniProt P13726)
Sequence (P13726 33-295): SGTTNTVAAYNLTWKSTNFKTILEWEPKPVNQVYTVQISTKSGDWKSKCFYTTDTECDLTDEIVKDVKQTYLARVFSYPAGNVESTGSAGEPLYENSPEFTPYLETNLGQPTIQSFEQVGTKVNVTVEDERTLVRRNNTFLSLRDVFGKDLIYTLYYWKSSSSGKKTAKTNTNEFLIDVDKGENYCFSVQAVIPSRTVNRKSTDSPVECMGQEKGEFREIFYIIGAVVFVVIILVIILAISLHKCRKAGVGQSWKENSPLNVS

**Q.** Which “prolongation of the clotting time of human and rabbit plasma (FIG. 6)” value does the source give for rFVIIa(K62E)-FFR here?
**A.** rFVIIa(K62E)-FFR is a superior inhibitor of coagulation versus both rFVIIa(wt)-FFR and pdFVIIa-FFR at molar ratios of inhibitor:plasma FVII as low as 0.25:1 in both human and rabbit plasma
